Laboratory results from patent US20170327598A1 (published 2017).
Where two headings read alike, the source gives them in different places.

Experiments:
Assay in all cases: sandwich ELISA, STAT protein coated at 0.5 µg/mL
STAT 1 protein [1] = target: T1, STAT 1 protein (UniProt P42224 1-750, limits assumed)
T1 sequence (looked up): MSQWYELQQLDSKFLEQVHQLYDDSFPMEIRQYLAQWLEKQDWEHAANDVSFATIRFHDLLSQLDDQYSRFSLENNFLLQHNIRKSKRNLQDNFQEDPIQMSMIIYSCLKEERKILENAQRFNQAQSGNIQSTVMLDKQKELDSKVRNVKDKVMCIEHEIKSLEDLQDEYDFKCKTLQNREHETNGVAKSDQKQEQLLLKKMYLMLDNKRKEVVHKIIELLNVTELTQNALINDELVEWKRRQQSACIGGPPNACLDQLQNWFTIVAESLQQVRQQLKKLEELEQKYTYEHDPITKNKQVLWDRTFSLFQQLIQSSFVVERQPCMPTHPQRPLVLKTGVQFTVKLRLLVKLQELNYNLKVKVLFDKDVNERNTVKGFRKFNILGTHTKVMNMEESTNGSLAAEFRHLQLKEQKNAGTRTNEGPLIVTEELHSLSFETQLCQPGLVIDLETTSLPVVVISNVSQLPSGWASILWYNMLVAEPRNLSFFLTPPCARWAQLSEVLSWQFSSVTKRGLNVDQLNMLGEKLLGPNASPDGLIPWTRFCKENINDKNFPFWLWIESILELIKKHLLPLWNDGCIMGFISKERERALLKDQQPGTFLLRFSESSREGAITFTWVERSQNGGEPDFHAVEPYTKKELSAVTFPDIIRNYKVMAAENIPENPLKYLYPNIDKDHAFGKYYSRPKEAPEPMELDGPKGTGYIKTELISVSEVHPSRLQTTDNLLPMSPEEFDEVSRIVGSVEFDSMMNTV

STAT 2 protein [2] = target: T2, STAT 2 protein (UniProt P52630 1-851, limits assumed)
T2 sequence (P52630 whole entry): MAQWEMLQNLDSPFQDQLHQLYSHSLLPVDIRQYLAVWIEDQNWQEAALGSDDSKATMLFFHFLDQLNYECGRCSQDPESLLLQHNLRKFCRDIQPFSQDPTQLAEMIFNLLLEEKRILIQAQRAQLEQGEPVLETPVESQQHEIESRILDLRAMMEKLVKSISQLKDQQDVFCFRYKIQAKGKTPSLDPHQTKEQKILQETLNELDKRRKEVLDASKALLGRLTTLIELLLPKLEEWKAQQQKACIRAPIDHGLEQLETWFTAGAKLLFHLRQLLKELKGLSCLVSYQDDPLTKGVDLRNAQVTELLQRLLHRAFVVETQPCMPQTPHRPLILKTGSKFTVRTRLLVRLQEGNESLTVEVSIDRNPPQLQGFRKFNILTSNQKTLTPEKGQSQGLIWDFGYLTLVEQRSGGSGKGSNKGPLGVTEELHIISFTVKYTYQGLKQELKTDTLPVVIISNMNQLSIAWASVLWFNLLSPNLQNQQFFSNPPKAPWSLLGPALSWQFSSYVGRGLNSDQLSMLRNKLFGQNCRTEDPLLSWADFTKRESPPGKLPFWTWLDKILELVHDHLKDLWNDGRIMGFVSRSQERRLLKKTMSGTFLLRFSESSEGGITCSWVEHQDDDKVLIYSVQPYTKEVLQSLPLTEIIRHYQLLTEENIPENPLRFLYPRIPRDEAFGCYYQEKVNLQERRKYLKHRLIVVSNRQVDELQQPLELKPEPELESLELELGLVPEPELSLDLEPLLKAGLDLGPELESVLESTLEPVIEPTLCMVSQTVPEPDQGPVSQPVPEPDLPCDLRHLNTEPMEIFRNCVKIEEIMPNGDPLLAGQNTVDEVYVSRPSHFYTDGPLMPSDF

STAT 4 protein [3] = target: T3, STAT 4 protein (UniProt Q14765 1-748, limits assumed)
T3 sequence (looked up): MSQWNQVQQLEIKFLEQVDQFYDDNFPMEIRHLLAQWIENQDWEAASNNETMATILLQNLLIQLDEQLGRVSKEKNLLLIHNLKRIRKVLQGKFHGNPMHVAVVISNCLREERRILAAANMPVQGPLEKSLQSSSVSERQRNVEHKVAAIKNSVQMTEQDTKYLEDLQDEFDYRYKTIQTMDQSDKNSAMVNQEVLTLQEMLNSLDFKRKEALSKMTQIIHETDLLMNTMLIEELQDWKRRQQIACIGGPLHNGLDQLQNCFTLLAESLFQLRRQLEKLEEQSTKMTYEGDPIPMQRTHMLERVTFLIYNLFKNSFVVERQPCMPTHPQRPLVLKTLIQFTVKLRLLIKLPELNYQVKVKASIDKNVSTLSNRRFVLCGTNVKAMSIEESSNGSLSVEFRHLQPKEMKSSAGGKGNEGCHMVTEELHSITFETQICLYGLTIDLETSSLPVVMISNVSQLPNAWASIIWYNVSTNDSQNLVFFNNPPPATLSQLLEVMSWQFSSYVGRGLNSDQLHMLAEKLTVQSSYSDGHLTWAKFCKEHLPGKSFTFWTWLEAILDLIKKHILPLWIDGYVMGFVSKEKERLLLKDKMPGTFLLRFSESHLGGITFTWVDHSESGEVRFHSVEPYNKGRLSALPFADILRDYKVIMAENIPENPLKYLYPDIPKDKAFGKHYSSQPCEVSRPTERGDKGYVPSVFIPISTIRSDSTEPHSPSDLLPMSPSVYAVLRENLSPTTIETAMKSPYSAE

STAT 5a protein [4] = target: T4, STAT 5a protein (UniProt P42229 1-794, limits assumed)
T4 sequence (looked up): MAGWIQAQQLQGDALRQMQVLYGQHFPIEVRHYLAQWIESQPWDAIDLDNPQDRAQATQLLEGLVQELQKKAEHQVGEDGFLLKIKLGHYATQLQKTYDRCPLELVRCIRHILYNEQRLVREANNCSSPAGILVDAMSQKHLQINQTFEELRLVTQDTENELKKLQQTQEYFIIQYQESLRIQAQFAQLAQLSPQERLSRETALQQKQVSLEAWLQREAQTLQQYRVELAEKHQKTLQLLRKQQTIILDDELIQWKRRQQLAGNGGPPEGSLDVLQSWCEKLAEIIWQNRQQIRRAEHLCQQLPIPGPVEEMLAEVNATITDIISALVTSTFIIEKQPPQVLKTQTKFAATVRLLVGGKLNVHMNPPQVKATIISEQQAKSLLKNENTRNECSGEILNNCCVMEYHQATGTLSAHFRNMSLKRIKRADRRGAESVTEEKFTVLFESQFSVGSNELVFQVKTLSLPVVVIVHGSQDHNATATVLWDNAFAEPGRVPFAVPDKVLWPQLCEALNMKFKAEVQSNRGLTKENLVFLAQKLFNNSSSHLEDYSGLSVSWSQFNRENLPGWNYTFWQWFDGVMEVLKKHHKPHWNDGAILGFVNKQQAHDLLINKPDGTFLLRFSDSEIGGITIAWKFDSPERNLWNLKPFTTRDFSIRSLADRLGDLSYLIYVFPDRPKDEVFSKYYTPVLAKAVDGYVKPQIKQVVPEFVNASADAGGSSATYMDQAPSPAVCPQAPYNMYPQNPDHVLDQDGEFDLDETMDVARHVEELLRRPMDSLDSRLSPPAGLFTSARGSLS

STAT 1 protein [5] = target: T1, STAT 1 protein; remark: listed apart in the source
STAT 2 protein [6] = target: T2, STAT 2 protein; remark: listed apart in the source
STAT 3 protein = STAT 3 protein (UniProt P40763 1-770, limits assumed)
STAT 4 protein [7] = target: T3, STAT 4 protein; remark: listed apart in the source
STAT 5a protein [8] = target: T4, STAT 5a protein; remark: listed apart in the source

B1: anti-STAT3 VHH13 (SEQ ID NO:3) sdAb (VHH)
VHH: HVQLVESGGGSVQAGGSLRLSCAASGANGGRSCMGWFRQVPGKEREGVSGISTGGLITYYADSVKGRFTISQDNTKNTLYLQMNSLKPEDTAMYYCATSRFDCYRGSWFNRYMYNSWGQGTQVTVSS
Mean OD450 (STAT 1 protein [1]): 1.94 OD450 | Mean OD450 (STAT 2 protein [2]): 1.85 OD450 | Mean OD450 (STAT 4 protein [3]): 3.14 OD450 | Mean OD450 (STAT 5a protein [4]): 2.73 OD450 | Mean OD450 (STAT 1 protein [5]): 3.16 OD450 | Mean OD450 (STAT 2 protein [6]): 3.34 OD450 | Mean OD450 (STAT 3 protein): 3.67 OD450 | Mean OD450 (STAT 4 protein [7]): 3.67 OD450 | Mean OD450 (STAT 5a protein [8]): 3.32 OD450
